Assay results reported in patent publication US12122830 (ABL BIO, dated 2024).

Key:
[1] = molecular target: T1, recombinant ROR1-His (Sino Biological, 13968-H08H) (human, UniProt Q01973 30-406); test: BLI (Octet), ROR1-His loaded on biosensor, IgG in solution, 1:1 fitting
T1 construct: extracellular domain; Bought; also called human ROR1 antigen; not shown: His tag
Method: A 96 well black microplate (greiner bio one) in a biosensor tray case was installed, and 200 µl of 10×KB or D.W was put in 8 wells each. 8 sensors, Anti Penta His biosensors or AR2G biosensors (ForteBio, USA), were placed for 10 min for hydration. 600 µl of Analytic samples were diluted 2 folds or 3 folds to desired concentrations. It was diluted using 1×KB or 10×KB to reach a concentration of 30~0.021 nM. For antigen fixation, 1 µg/mL of a recombinant ROR1-His (Sino Biological, 13968-H08H) was diluted with 10×KB or Sodium Acetate pH5 buffer. For fixation, threshold was set to be 0.3 nmat the loading step. The experiment was performed for 3 min~10 min of association and for 20 min of dissociation. The prepared buffer was put into a new 96 well black microplate in accordance with octet program template in order. 10×KB or D.W 200 µl used as Baseline1 was put. 200 µl of the antigen ROR1-His protein (1 µg/mL) was loaded. 10×KB or D.W 200 µl used as Baseline2 was put. 200 µl of 10×KB buffer or 1×KB corresponding the diluted antibody in 30~0.021 nM, Reference blank was put into each well. The temperature of the experimental plate was fixed at 30° C. After placing all samples, the device was activated. After the experiment was finished, the result was uploaded on Octet Analysis 9.0 software, and then KD value was calculated using 1:1 fitting, and the result was described in the following Table 6. […]

[2] = molecular target: T2, human ROR1 expressed on the cell surface (human, UniProt Q01973 30-937); test: flow cytometry on HCC1937 cells (breast cancer), C2E3 IgG at 10 µg/mL, MFI of anti-ROR1 / MFI of 2nd Ab
T2 construct: whole, on cells; On JeKo-1 and Mino cells and other cancer cell lines (endogenous) and on transfected CHO and MC38 cells; also called cell surface-expressed ROR1; CHO-human ROR1
T2 sequence (Q01973 30-937): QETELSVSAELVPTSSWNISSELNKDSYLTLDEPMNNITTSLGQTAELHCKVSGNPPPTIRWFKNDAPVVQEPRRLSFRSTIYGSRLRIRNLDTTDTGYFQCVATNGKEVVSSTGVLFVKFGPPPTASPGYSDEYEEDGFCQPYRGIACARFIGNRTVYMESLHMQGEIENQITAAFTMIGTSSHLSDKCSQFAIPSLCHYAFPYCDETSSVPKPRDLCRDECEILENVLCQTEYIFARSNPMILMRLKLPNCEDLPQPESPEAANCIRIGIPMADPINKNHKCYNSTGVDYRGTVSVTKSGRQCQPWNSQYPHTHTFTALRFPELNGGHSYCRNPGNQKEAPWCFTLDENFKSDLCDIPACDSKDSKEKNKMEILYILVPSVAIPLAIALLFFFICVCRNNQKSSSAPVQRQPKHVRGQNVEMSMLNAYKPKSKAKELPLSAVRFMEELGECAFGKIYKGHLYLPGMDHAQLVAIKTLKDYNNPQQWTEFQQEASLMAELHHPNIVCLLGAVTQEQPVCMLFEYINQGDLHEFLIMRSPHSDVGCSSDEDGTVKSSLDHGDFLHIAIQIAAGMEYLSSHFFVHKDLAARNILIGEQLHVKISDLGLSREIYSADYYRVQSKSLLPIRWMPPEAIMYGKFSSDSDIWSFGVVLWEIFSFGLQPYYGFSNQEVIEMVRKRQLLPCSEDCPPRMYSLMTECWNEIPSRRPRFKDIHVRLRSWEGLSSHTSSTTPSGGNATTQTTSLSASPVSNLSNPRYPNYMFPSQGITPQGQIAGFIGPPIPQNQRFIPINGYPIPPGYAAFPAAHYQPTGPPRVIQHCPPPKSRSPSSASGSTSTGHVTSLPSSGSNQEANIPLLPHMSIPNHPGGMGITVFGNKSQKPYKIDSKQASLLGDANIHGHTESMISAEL
Method: (§1) For the cell lines, the binding to ROR1 was analyzed with FACS (FACSCalibur, BD Biosciences) by using the anti-ROR1 antibody of the present invention.
(§2) Specifically, after disassociating each cell line and washing in PBS, the number of cells was counted and set as 2 ×10^5 cells/200 µl PBS, and then the clone C2E3 among ROR1 monoclonal antibodies prepared in Example 3 was treated in 10 µg/mL, and it was reacted at 4° C. for 1 hour. After reaction, cells were washed in PBS, and then the FITC-labeled constant region (Fc)-specific antibody (Goat anti-human IgG FITC conjugate, Fc specific, Sigma, F9512, concentration: 2.0 mg/ml) was suspended in 2 µl/1 ×10^5 cells/200 µl PBS, and it was reacted at 4° C. for 1 hour. After reaction, cells were washed in PBS, it was analyzed using a FACSCalibur device. The negative control group was treated only with the FITC-labeled constant region (Fc)-specific antibody. To compare the expression degrees of ROR1 among the cancer cell lines, the value of the result for the peak shift in the experimental group treated with the ROR1 monoclonal antibody (C2E3) of the present invention was divided by the result for the peak shift in the control group (Mean Fluorescence Intensity Ratio MFI Ratio: MFI of anti-ROR1/MFI of 2nd Ab).

[3] = molecular target: T2, human ROR1 expressed on the cell surface; test: flow cytometry on Jurkat cells (T cell leukemia), C2E3 IgG at 10 µg/mL, MFI of anti-ROR1 / MFI of 2nd Ab
Method: as §1, §2

[4] = molecular target: T2, human ROR1 expressed on the cell surface; test: flow cytometry on NCI-N87 cells (gastric cancer), C2E3 IgG at 10 µg/mL, MFI of anti-ROR1 / MFI of 2nd Ab
Method: as §1, §2

[5] = molecular target: T2, human ROR1 expressed on the cell surface; test: flow cytometry on DLD-1 cells (colon cancer), C2E3 IgG at 10 µg/mL, MFI of anti-ROR1 / MFI of 2nd Ab
Method: as §1, §2

[6] = molecular target: T2, human ROR1 expressed on the cell surface; test: flow cytometry on NCI-H1975 cells (lung cancer), C2E3 IgG at 10 µg/mL, MFI of anti-ROR1 / MFI of 2nd Ab
Method: as §1, §2

[7] = molecular target: T2, human ROR1 expressed on the cell surface; test: flow cytometry on MDA-MB-468 cells (breast cancer), C2E3 IgG at 10 µg/mL, MFI of anti-ROR1 / MFI of 2nd Ab
Method: as §1, §2

[8] = molecular target: T2, human ROR1 expressed on the cell surface; test: flow cytometry on SNU-16 cells (gastric cancer), C2E3 IgG at 10 µg/mL, MFI of anti-ROR1 / MFI of 2nd Ab
Method: as §1, §2

T1 sequence (Q01973 30-406): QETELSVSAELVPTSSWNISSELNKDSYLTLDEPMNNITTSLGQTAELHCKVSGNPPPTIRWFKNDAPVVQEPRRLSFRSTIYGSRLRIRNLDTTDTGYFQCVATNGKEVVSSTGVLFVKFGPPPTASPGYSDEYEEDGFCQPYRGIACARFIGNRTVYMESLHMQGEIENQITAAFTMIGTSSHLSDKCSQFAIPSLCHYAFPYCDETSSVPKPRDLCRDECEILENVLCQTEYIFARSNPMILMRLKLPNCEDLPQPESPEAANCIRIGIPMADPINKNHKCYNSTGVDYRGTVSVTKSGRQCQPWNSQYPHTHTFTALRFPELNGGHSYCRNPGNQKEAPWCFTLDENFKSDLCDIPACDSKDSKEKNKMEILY

Kd [1]: 0.424 nM
koff [1]: 0.00231 s⁻¹
Mean Fold Ratio [2]: 2.7
Mean Fold Ratio [3]: 1.7
Mean Fold Ratio [4]: 11.8
Mean Fold Ratio [5]: 17.6
Mean Fold Ratio [6]: 4.2
Mean Fold Ratio [7]: 6.4
Mean Fold Ratio [8]: 2.4
B1: C2E3 anti-ROR1 IgG antibody (antibody, V domains shown)
VH: EVQLLESGGGLVQPGGSLRLSCAASGFTFSNYAMSWVRQAPGKGLEWVSSISHNSGSTYYADSVKGRFTISRDNSKNTLYLQMNSLRAEDTAVYYCAKFISARKSLGRSYSNGMDVWGQGTLVTVSS
VL: QSVLTQPPSASGTPGQRVTISCTGSSSNIGSNDVTWYQQLPGTAPKLLIYADSKRPSGVPDRFSGSKSGTSASLAISGLRSEDEADYYCGTWDYSLSGYVFGGGTKLTVLG
